From PMC6444176 (Biochemistry and Biophysics Reports, 2019)

Biological target: the molecule itself
Assay: SEC

B1: His-MBP-VWA (hCLCA1 von Willebrand factor type A domain construct, amino acids 240-544) (domain or fragment, human, UniProt A8K7I4 240-544, looked up)
chain: AQHVDSIVEFCTEQNHNKEAPNKQNQKCNLRSTWEVIRDSEDFKKTTPMTTQPPNPTFSLLQIGQRIVCLVLDKSGSMATGNRLNRLNQAGQLFLLQTVELGSWVGMVTFDSAAHVQNELIQINSGSDRDTLAKRLPAAASGGTSICSGLRSAFTVIRKKYPTDGSEIVLLTDGEDNTISGCFNEVKQSGAIIHTVALGPSAAQELEELSKMTGGLQTYASDQVQNNGLIDAFGALSSGNGAVSQRSIQLESKGLTLQNSQWMNGTVIVDSTVGKDTLFLITWTMQPPQILLWDPSGQKQGGFVV
- stoichiometry N: 2
